This is an account of results in PMC3583217, “Novel HER2 Aptamer Selectively Delivers Cytotoxic Drug to HER2-positive Breast Cancer Cells in Vitro”.

A word on the Kd: it is the free concentration of one partner at which half of the binding sites on the other are occupied at equilibrium, for simple one-to-one binding.

This data set deals with HER2 extracellular domain (ECD) (UniProt P04626 23-652). In words: flow cytometry on protein-coated beads; random-library background subtracted; Hanks buffer (SELEX binding buffer with 0.1 mg/mL salmon sperm DNA and 1 mg/mL BSA), 37 C, 30 min; pH not stated; aptamer pool heated 95 C 5 min then iced in SELEX. The settings on record: protein: commercial; tags: covalently coupled to magnetic beads; label: FITC (5' via primer P1 in SELEX).

B1: HB5 (ssDNA)
DNA: AACCGCCCAAATCCCTAAGAGTCTGCACTTGTCATTTTGTATATGTATTTGGTTTTTGGCTCTCACAGACACACTACACACGCACA
Consider B1, for which the affinity, expressed as Kd, was 316 nM.
